For experiment [1], the target named is T1, recombinant cMet/HGFR with c-terminal His-tag, Cy5-labeled (UniProt P08581 25-932, limits assumed, Cy5 label (reacted with Cy5 Mono NHS Ester; sites not stated)).
T1 construct: Commercial protein; also called Cy5-c-MET; Cy5-labeled c-MET antigen; not shown: C-terminal His-tag
Kind of experiment: competitive TR-FRET (Eu-amivantamab/Cy5-c-MET), EC50 ratio vs Reference Material; Ex. 11 drug product, 6 months at 25 C. The text has this:
(§1) In this procedure, varying concentrations of unlabeled bispecific EGFR-cMet antibody sample compete with donor fluorophore (Europium (Eu) chelate) labeled bispecific EGFR-cMet antibody for binding to an acceptor fluorophore (Cy5)-labeled c-MET antigen. Excitation of the donor fluorophore results in a transfer of energy to the bound acceptor fluorophore (FRET process). The resultant FRET is detected by emission of light at 665 nm using a microplate reader capable of measuring time-resolved fluorescence. Sample dose response curves are compared to the Reference Material (RM).
(§2) c-MET Binding Materials and Methods. Certified commercial cMet, a recombinant cMet/HGFR with c-terminal His-tag is reacted with certified commercial Cy5 Mono NHS Ester to produce Cy5-labeled c-MET. Validated bispecific EGFR-cMet antibody is reacted with certified commercial Europium (Eu) chelate to produce Eu labeled bispecific EGFR-cMet antibody. […] Fluorescence is then measured by spectrophotometry at 665 nm, plotted against antibody concentration and analyzed by a four-parameter logistic model. The antibody concentration required to obtain half of the maximum fluorescence response (EC50) is determined for RM, assay control and samples. The potencies of assay control and samples are calculated based on the ratio of the sample (or control) and RM EC50 values and reported as a percentage activity relative to the RM.

Experiment [2] deals with T1, recombinant cMet/HGFR with c-terminal …. The experiment is described as follows: competitive TR-FRET (Eu-amivantamab/Cy5-c-MET), EC50 ratio vs Reference Material; Ex. 2 Formulation 3 (acetate), T0, 25 C table.
From the text: as §1, §2

The target in experiment [3] is T2, recombinant human EGFR/ErbB1/HER1 with C-terminal His tag, Cy5-labeled (human, UniProt P00533 25-645, Cy5 label (reacted with Cy5 Mono NHS Ester; sites not stated)).
T2 construct: Commercial protein; also called Cy5-EGFR; Cy5-labeled EGFR antigen; not shown: C-terminal His tag
The experiment is described as follows: competitive TR-FRET (Eu-amivantamab/Cy5-EGFR), EC50 ratio vs Reference Material; Ex. 12 drug product with rHuPH20, 6 months at 25 C.
From the text: (§3) In this procedure, varying concentrations of unlabeled bispecific EGFR-cMet antibody sample compete with donor fluorophore (Europium (Eu) chelate) labeled bispecific EGFR-cMet antibody for binding to an acceptor fluorophore (Cy5)-labeled EGFR antigen. Excitation of the donor fluorophore results in a transfer of energy to the bound acceptor fluorophore (FRET process). The resultant FRET is detected by emission of light at 665 nm using a microplate reader capable of measuring time-resolved fluorescence. Sample dose response curves are compared to the RM.
as §2, with “EGFR” for “c-MET”, “EGFR,” for “cMet,”, “human EGFR/ErbB1/HER1” for “cMet/HGFR”, “C-terminal His tag” for “c-terminal His-tag”, “EGFR.” for “c-MET.”, “Eu-labeled” for “Eu labeled”
On the technique in general: TR-FRET usually uses a lanthanide donor and a delayed reading to cut background.

Experiment [4] has as its target T1, recombinant cMet/HGFR with c-terminal …. Kind of experiment: competitive TR-FRET (Eu-amivantamab/Cy5-c-MET), EC50 ratio vs Reference Material; Ex. 12 drug product with rHuPH20, 9 months at 5 C.
From the text: as §1, §2

For experiment [5], the target named is T2, recombinant human EGFR/ErbB1/HER1 with …. The experiment is described as follows: competitive TR-FRET (Eu-amivantamab/Cy5-EGFR), EC50 ratio vs Reference Material; Ex. 2 Formulation 2 (50 mM histidine), 3 months at 40 C.
From the text: as §3
as §2, with “EGFR” for “c-MET”, “EGFR,” for “cMet,”, “human EGFR/ErbB1/HER1” for “cMet/HGFR”, “C-terminal His tag” for “c-terminal His-tag”, “EGFR.” for “c-MET.”, “Eu-labeled” for “Eu labeled”

For experiment [6] the target is unchanged. Kind of experiment: competitive TR-FRET (Eu-amivantamab/Cy5-EGFR), EC50 ratio vs Reference Material; Ex. 2 Formulation 1 (10 mM histidine), 3 months at 40 C.
From the text: as §3
as §2, with “EGFR” for “c-MET”, “EGFR,” for “cMet,”, “human EGFR/ErbB1/HER1” for “cMet/HGFR”, “C-terminal His tag” for “c-terminal His-tag”, “EGFR.” for “c-MET.”, “Eu-labeled” for “Eu labeled”

Experiment [7] shares this target. The experiment is described as follows: competitive TR-FRET (Eu-amivantamab/Cy5-EGFR), EC50 ratio vs Reference Material; Ex. 11 drug product, 0 months, 25 C table.
From the text: as §3
as §2, with “EGFR” for “c-MET”, “EGFR,” for “cMet,”, “human EGFR/ErbB1/HER1” for “cMet/HGFR”, “C-terminal His tag” for “c-terminal His-tag”, “EGFR.” for “c-MET.”, “Eu-labeled” for “Eu labeled”

The target is the same in experiment [8]. Kind of experiment: competitive TR-FRET (Eu-amivantamab/Cy5-EGFR), EC50 ratio vs Reference Material; Ex. 11 drug product, 3 months at 25 C.
From the text: as §3
as §2, with “EGFR” for “c-MET”, “EGFR,” for “cMet,”, “human EGFR/ErbB1/HER1” for “cMet/HGFR”, “C-terminal His tag” for “c-terminal His-tag”, “EGFR.” for “c-MET.”, “Eu-labeled” for “Eu labeled”

B1: amivantamab (bispecific antibody, human IgG1, kappa)
heavy 1: not shown
light 1: not shown
heavy 2: not shown
light 2: DIQMTQSPSSVSASVGDRVTITCRASQGISNWLAWFQHKPGKAPKLLIYAASSLLSGVPSRFSGSGSGTDFTLTISSLQPEDFATYYCQQANSFPITFGQGTRLEIKRTVAAPSVFIFPPSDEQLKSGTASVVCLLNNFYPREAKVQWKVDNALQSGNSQESVTEQDSKDSTYSLSSTLTLSKADYEKHKVYACEVTHQGLSSPVTKSFNRGEC
notes: The samples tested were high concentration (160 mg/mL) formulations, fresh or stored or stressed; also called JNJ-61186372; bispecific EGFR-cMet antibody
On to B1, for which the “cMET Binding activity relative to Reference Material (%)” value in experiment [1] came to 113%; in experiment [4] it was 106%. Further, the “cMET Binding % activity relative to RM” value in experiment [2] stood at 94%. The “EGFR Binding activity relative to Reference Material (%)” value in experiment [3] is 54%; in experiment [7], 89%; in experiment [8], 71%. The figures for the “EGFR Binding % activity relative to RM” value in experiment [5] and in experiment [6] were 38% and 41%, respectively.

(Values after patent US20240034813A1 (Janssen / Centocor, published 2024).)
